Data from the supplement of paper PMC10567573.

B1: ZC3H15 (parent)
chain: ENLFTGEDLDELEEELNTLDLEE
B2: SNAP91 (parent)
chain: FAQPMMRPPFGAAAVPGTQLSPSP

Variants of: B1
Assay: protein stability index of a GFP-peptide fusion (GPS, HEK-293T) (PSI 1-6); higher = more stable
Conditions: c terminus: native
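Note: lentivirally expressed fusions sorted by FACS into six bins by GFP to DsRed ratio, PSI derived from sequencing read proportions per bin multiplied by bin number.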

Variant | protein stability index
ENLFTGEDLDELEEELNTLDLSE [E22S] | 5.84
ENLFTGEDLDELEEELNTLDLQE [E22Q] | 5.67
ENLFTGEDLDELEEELNTLDLCE [E22C] | 5.58
ENLFTGEDLDELEEELNTLDLNE [E22N] | 5.37
ENLFTGEDLDELEEELNTLDLGE [E22G] | 5.33
ENLFTGEDLDELEEELNTLDLAE [E22A] | 5.34
ENLFTGEDLDELEEELNTLDLHE [E22H] | 5.94
ENLFTGEDLDELEEELNTLDLPE [E22P] | 5.17
ENLFTGEDLDELEEELNTLDLYE [E22Y] | 5.5
ENLFTGEDLDELEEELNTLDLRE [E22R] | 5.7
ENLFTGEDLDELEEELNTLDLVE [E22V] | 5.55
ENLFTGEDLDELEEELNTLDLLE [E22L] | 5.79
ENLFTGEDLDELEEELETLDLEE [N17E] | 4.89
ENLFTGEDLDELEEELMTLDLEE [N17M] | 3.5
ENLFTGEDLDELEEELWTLDLEE [N17W] | 2.69
ENLFTGEDLDELEEELHTLDLEE [N17H] | 3.71
ENLFTGEDLDELEEELDTLDLEE [N17D] | 4.65
ENLFTGEDLDELEEELFTLDLEE [N17F] | 2.5
ENLFTGEDLDELEEELVTLDLEE [N17V] | 3.5
ENLFTGEDLDELEEELYTLDLEE [N17Y] | 3.79
ENLFTGEDLDELEEELTTLDLEE [N17T] | 3.66
ENLFTGEDLDELEEELRTLDLEE [N17R] | 5.04

Variant | protein stability index
ENLFTGEDLDELEEELQTLDLEE [N17Q] | 4.06
ENLFTGEDLDELEEELITLDLEE [N17I] | 3.3
ENLFTGEDLDELEEELCTLDLEE [N17C] | 3.64
ENLFTGEDLDELEEELKTLDLEE [N17K] | 5.18
ENLFTGEDLDELEEELATLDLEE [N17A] | 4.7
ENLFTGEDLDELEEELSTLDLEE [N17S] | 4.45
ENLFTGEDLDELEEELNTQDLEE [L19Q] | 4.27
ENLFTGEDLDELEEELNTWDLEE [L19W] | 1.11
ENLFTGEDLDELEEELNTGDLEE [L19G] | 4.69
ENLFTGEDLDELEEELNTNDLEE [L19N] | 4.52
ENLFTGEDLDELEEELNTEDLEE [L19E] | 5.17
ENLFTGEDLDELEEELNTIDLEE [L19I] | 3.98
ENLFTGEDLDELEEELNTPDLEE [L19P] | 4.67
ENLFTGEDLDELEEELNTKDLEE [L19K] | 4.95
ENLFTGEDLDELEEELNTSDLEE [L19S] | 4.91
ENLFTGEDLDELEEELNTDDLEE [L19D] | 5.17
ENLFTGEDLDELEEELNTADLEE [L19A] | 4.58
ENLFTGEDLDELEEELNTTDLEE [L19T] | 4.7
ENLFTGEDLDELEEELNTFDLEE [L19F] | 2.97
ENLFTGEDLDELEEELNTYDLEE [L19Y] | 1.99
ENLFTGEDLDELEEELNTHDLEE [L19H] | 3.85
ENLFTGEDLDELEEELNTVDLEE [L19V] | 3.86

Variants of: B2
Assay: as above
Conditions: c terminus: a fixed tail appended

Variant | protein stability index
FAQPMMEPPFGAAAVPGTQLSPSP [R7E] | 3.22
FAQPMMWPPFGAAAVPGTQLSPSP [R7W] | 1.7
FAQPMMGPPFGAAAVPGTQLSPSP [R7G] | 2.23
FAQPMMRPPFGAAAVPGTQLSPNP [S23N] | 3.29
FAQPMMRPPFGAAAVPGTQLSPTP [S23T] | 3.27
FAQPMMRPPFGAAAVPGTQLSPLP [S23L] | 2.1
FAQPMMRRPFGAAAVPGTQLSPSP [P8R] | 3.03
FAQPMMRSPFGAAAVPGTQLSPSP [P8S] | 2.96
FAQPMMRIPFGAAAVPGTQLSPSP [P8I] | 2.49
FAQPMMRGPFGAAAVPGTQLSPSP [P8G] | 2.97
FAQEMMRPPFGAAAVPGTQLSPSP [P4E] | 2.77
FAQLMMRPPFGAAAVPGTQLSPSP [P4L] | 1.65
FAQYMMRPPFGAAAVPGTQLSPSP [P4Y] | 1.83
FAQSMMRPPFGAAAVPGTQLSPSP [P4S] | 2.26
FAQPMMRPPFGAAAVPGTQLSPSV [P24V] | 2.51
FAQPMMRPPFGAAAVPGTQLSPSY [P24Y] | 2.86
FAQPMMRPPFGAAAVPGTQLLPSP [S21L] | 2.76
YAQPMMRPPFGAAAVPGTQLSPSP [F1Y] | 2.24
RAQPMMRPPFGAAAVPGTQLSPSP [F1R] | 4.19
PAQPMMRPPFGAAAVPGTQLSPSP [F1P] | 4.75
FAQPMIRPPFGAAAVPGTQLSPSP [M6I] | 3.77
FAQPMMRPPFGAAAVPGTQLSTSP [P22T] | 3.3
FAQPMMRPPFGAAAVPGTQLSDSP [P22D] | 2.97
FAQPMMRPPFGAAAVPGTQLSRSP [P22R] | 3.32
FAQPMMRPPFGAARVPGTQLSPSP [A14R] | 3.31
FAQPMMRPPFGAASVPGTQLSPSP [A14S] | 2.87

Variant | protein stability index
FAQPMMRPPFGAAVVPGTQLSPSP [A14V] | 2.61
FAQPMMRPPFGAAQVPGTQLSPSP [A14Q] | 3.25
FAQPMMRPPFGAAAVPHTQLSPSP [G17H] | 3.22
FAQPMMRPPFGAAAVPMTQLSPSP [G17M] | 2.84
FCQPMMRPPFGAAAVPGTQLSPSP [A2C] | 2.73
FAQPMMRPPFGAAAVQGTQLSPSP [P16Q] | 3.19
FAQPMMRPPFGADAVPGTQLSPSP [A13D] | 3.38
FAQPMMRPPFGAPAVPGTQLSPSP [A13P] | 3.76
FAQPMMRPPFGAEAVPGTQLSPSP [A13E] | 3.24
FAQPMMRPPFGAAATPGTQLSPSP [V15T] | 3.5
FAQPMMRPPFGAAANPGTQLSPSP [V15N] | 3.27
FAQPMMRPPFGAAAIPGTQLSPSP [V15I] | 2.82
FAQPMMRPPFEAAAVPGTQLSPSP [G11E] | 3.43
FAQPMMRPPFSAAAVPGTQLSPSP [G11S] | 4.04
FAQPMMRPPFPAAAVPGTQLSPSP [G11P] | 3.98
FAQPMMRPPFHAAAVPGTQLSPSP [G11H] | 2.91
FAQPMMRPPFGAAAVPGIQLSPSP [T18I] | 2.84
FAQPMMRPPFGAAAVPGHQLSPSP [T18H] | 2.82
FAQPMMRPPFGAAAVPGDQLSPSP [T18D] | 2.6
FAVPMMRPPFGAAAVPGTQLSPSP [Q3V] | 3.45
FAGPMMRPPFGAAAVPGTQLSPSP [Q3G] | 2.8
FASPMMRPPFGAAAVPGTQLSPSP [Q3S] | 3.61
FAQPMMRPPFGAAAVPGTQESPSP [L20E] | 2.94
FAQPWMRPPFGAAAVPGTQLSPSP [M5W] | 1.96
FAQPTMRPPFGAAAVPGTQLSPSP [M5T] | 3.07
FAQPMMRPPLGAAAVPGTQLSPSP [F10L] | 4.12
